B2: S. cerevisiae Vps4p(E233Q) (enzyme, UniProt P52917 1-437, looked up)
chain: MSTGDFLTKGIELVQKAIDLDTATQYEEAYTAYYNGLDYLMLALKYEKNPKSKDLIRAKFTEYLNRAEQLKKHLESEEANAAKKSPSAGSGSNGGNKKISQEEGEDNGGEDNKKLRGALSSAILSEKPNVKWEDVAGLEGAKEALKEAVILPVKFPHLFKGNRKPTSGILLYGPPGTGKSYLAKAVATEANSTFFSVSSSDLVSKWMGESEKLVKQLFAMARENKPSIIFIDQVDALTGTRGEGESEASRRIKTELLVQMNGVGNDSQGVLVLGATNIPWQLDSAIRRRFERRIYIPLPDLAARTTMFEINVGDTPCVLTKEDYRTLGAMTEGYSGSDIAVVVKDALMQPIRKIQSATHFKDVSTEDDETRKLTPCSPGDDGAIEMSWTDIEADELKEPDLTIKDFLKAIKSTRPTVNEDDLLKQEQFTRDFGQEGN

Columns and labels:
[1] = target: T1, S. cerevisiae Vps4p (wild type) (S. cerevisiae, UniProt P52917 1-437); test: SEC
T1 sequence (looked up): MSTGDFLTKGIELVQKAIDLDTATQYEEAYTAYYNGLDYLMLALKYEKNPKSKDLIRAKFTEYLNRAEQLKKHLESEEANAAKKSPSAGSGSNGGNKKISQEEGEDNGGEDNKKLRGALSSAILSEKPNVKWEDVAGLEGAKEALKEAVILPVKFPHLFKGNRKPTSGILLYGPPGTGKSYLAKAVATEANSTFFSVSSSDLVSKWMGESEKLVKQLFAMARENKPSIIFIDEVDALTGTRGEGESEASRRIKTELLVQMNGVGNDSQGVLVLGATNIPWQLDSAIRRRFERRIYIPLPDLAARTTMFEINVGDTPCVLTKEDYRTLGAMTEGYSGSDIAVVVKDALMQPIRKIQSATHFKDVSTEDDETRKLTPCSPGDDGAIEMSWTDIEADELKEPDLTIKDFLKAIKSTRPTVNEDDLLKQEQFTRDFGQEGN

[2] = target: B2; test: SEC
[3] = target: the molecule itself; test: SEC
[4] = target: the molecule itself; test: SEC; remark: listed apart in the source
[5] = target: the molecule itself; test: SEC; remark: listed apart in the source
[6] = target: the molecule itself; test: SEC; remark: listed apart in the source
[7] = target: the molecule itself; test: AUC
[8] = target: the molecule itself; test: crystal structure
[9] = target: the molecule itself; test: SEC; remark: listed apart in the source

B1: S. cerevisiae Vta1p (natural protein, UniProt Q06263 1-330, looked up)
chain: MASNAARVVATAKDFDKVGLGIIGYYLQLYAVELILSEEDRSQEMTALATELLDTIEAFKKEIGGESEAEDSDKSLHVMNTLIHDQEKAKIYMLNFTMSLYNEKLKQLKDGPWDVMLKRSLWCCIDLFSCILHLWKENISETSTNSLQKRIKYCKIYLSKLAKGEIGSSDEKTLDYADFADDSEEIKDEDVDHQTSDLENNNNDKVEGLAPKDQTTSYEPVDEVPEFIDDADSVNEEEQTVDKNEDAITKDEQQVVKKEVDLTRPSAPSEPAAAEHKSYTKDELTKIMDRASKIEQIQKLAKYAISALNYEDLPTAKDELTKALDLLNSI
[1]
  binding result: binds
[2]
  binding result: binds

## B2
[3]
  stoichiometry N: 12
[4]
  stoichiometry N: 6

B3: Sulfolobus solfataricus Vps4 (SsoVps4, wild type) (enzyme, UniProt Q97ZJ7 1-372, looked up)
chain: MSAQVMLEDMARKYAILAVKADKEGKVEDAITYYKKAIEVLSQIIVLYPESVARTAYEQMINEYKKRISYLEKVLPASSDGSGDNTSPPEEVVITEKPKVSFKDIVGLDDVKEALREAIIYPTKRPDLFPLGWPRGILLYGPPGCGKTMIAAAVANEIDSIFMQLDAASVMSKWLGEAEKNVANVFKMAREESKKQNKPAIIFIDELDALLGVYSTEVGGEARVRNQFLKEMDGLLDKSENYKVYVIGATNKPWRLDEAFLRRFQKRIYVPLPDYEQRLSLFKYYTSKIKLDTEVSLEELAKLTEGYTASDIRDIVQAAHIKVVKEMFKNNLGEPRTITLQDFKDILKVRMPSVNPELIKAYEAWTEKFKAL
[5]
  stoichiometry N: 12
[6]
  stoichiometry N: ~6
[7]
  stoichiometry N: 6

B4: SsoVps4(E206Q) (enzyme, Sulfolobus solfataricus, UniProt Q97ZJ7 1-372, looked up)
chain: MSAQVMLEDMARKYAILAVKADKEGKVEDAITYYKKAIEVLSQIIVLYPESVARTAYEQMINEYKKRISYLEKVLPASSDGSGDNTSPPEEVVITEKPKVSFKDIVGLDDVKEALREAIIYPTKRPDLFPLGWPRGILLYGPPGCGKTMIAAAVANEIDSIFMQLDAASVMSKWLGEAEKNVANVFKMAREESKKQNKPAIIFIDQLDALLGVYSTEVGGEARVRNQFLKEMDGLLDKSENYKVYVIGATNKPWRLDEAFLRRFQKRIYVPLPDYEQRLSLFKYYTSKIKLDTEVSLEELAKLTEGYTASDIRDIVQAAHIKVVKEMFKNNLGEPRTITLQDFKDILKVRMPSVNPELIKAYEAWTEKFKAL
[5]
  stoichiometry N: 12
[6]
  stoichiometry N: ~6

B5: SsoVps4(85-372, E206Q) (domain or fragment, Sulfolobus solfataricus, UniProt Q97ZJ7 85-372, looked up)
chain: NTSPPEEVVITEKPKVSFKDIVGLDDVKEALREAIIYPTKRPDLFPLGWPRGILLYGPPGCGKTMIAAAVANEIDSIFMQLDAASVMSKWLGEAEKNVANVFKMAREESKKQNKPAIIFIDQLDALLGVYSTEVGGEARVRNQFLKEMDGLLDKSENYKVYVIGATNKPWRLDEAFLRRFQKRIYVPLPDYEQRLSLFKYYTSKIKLDTEVSLEELAKLTEGYTASDIRDIVQAAHIKVVKEMFKNNLGEPRTITLQDFKDILKVRMPSVNPELIKAYEAWTEKFKAL
modifications: selenomethionine-substituted
[8]
  binding result: binds

B6: SsoVps4(F328A) (enzyme, Sulfolobus solfataricus, UniProt Q97ZJ7 1-372, looked up)
chain: MSAQVMLEDMARKYAILAVKADKEGKVEDAITYYKKAIEVLSQIIVLYPESVARTAYEQMINEYKKRISYLEKVLPASSDGSGDNTSPPEEVVITEKPKVSFKDIVGLDDVKEALREAIIYPTKRPDLFPLGWPRGILLYGPPGCGKTMIAAAVANEIDSIFMQLDAASVMSKWLGEAEKNVANVFKMAREESKKQNKPAIIFIDELDALLGVYSTEVGGEARVRNQFLKEMDGLLDKSENYKVYVIGATNKPWRLDEAFLRRFQKRIYVPLPDYEQRLSLFKYYTSKIKLDTEVSLEELAKLTEGYTASDIRDIVQAAHIKVVKEMAKNNLGEPRTITLQDFKDILKVRMPSVNPELIKAYEAWTEKFKAL
[6]
  stoichiometry N: 2

B7: SsoVps4(R262A) (enzyme, Sulfolobus solfataricus, UniProt Q97ZJ7 1-372, looked up)
chain: MSAQVMLEDMARKYAILAVKADKEGKVEDAITYYKKAIEVLSQIIVLYPESVARTAYEQMINEYKKRISYLEKVLPASSDGSGDNTSPPEEVVITEKPKVSFKDIVGLDDVKEALREAIIYPTKRPDLFPLGWPRGILLYGPPGCGKTMIAAAVANEIDSIFMQLDAASVMSKWLGEAEKNVANVFKMAREESKKQNKPAIIFIDELDALLGVYSTEVGGEARVRNQFLKEMDGLLDKSENYKVYVIGATNKPWRLDEAFLARFQKRIYVPLPDYEQRLSLFKYYTSKIKLDTEVSLEELAKLTEGYTASDIRDIVQAAHIKVVKEMFKNNLGEPRTITLQDFKDILKVRMPSVNPELIKAYEAWTEKFKAL
[9]
  binding result: binds

B8: SsoVps4(R263A) (enzyme, Sulfolobus solfataricus, UniProt Q97ZJ7 1-372, looked up)
chain: MSAQVMLEDMARKYAILAVKADKEGKVEDAITYYKKAIEVLSQIIVLYPESVARTAYEQMINEYKKRISYLEKVLPASSDGSGDNTSPPEEVVITEKPKVSFKDIVGLDDVKEALREAIIYPTKRPDLFPLGWPRGILLYGPPGCGKTMIAAAVANEIDSIFMQLDAASVMSKWLGEAEKNVANVFKMAREESKKQNKPAIIFIDELDALLGVYSTEVGGEARVRNQFLKEMDGLLDKSENYKVYVIGATNKPWRLDEAFLRAFQKRIYVPLPDYEQRLSLFKYYTSKIKLDTEVSLEELAKLTEGYTASDIRDIVQAAHIKVVKEMFKNNLGEPRTITLQDFKDILKVRMPSVNPELIKAYEAWTEKFKAL
[9]
  binding result: binds

From paper PMC3919030 (Journal of molecular biology, 2013)
